# Data: the nanobody polyreactivity screen of Harvey et al. (2022)
# Assay: yeast display, Sf9 membrane polyspecificity reagent, FACS + sequencing; frameworks hold sequencing errors
# Outline: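 A synthetic nanobody library was expressed on Saccharomyces cerevisiae BJ5465 by galactose induction for 36–48 hours. The library was stained for 1 hour at 4 °C with 10% biotinylated, detergent-solubilized Sf9 membrane reagent and enriched with streptavidin microbeads before FACS. Low and high (top ~1%) gates were set on anti-HA fluorescence for expression and streptavidin fluorescence for reagent binding, and each polyreactivity label reflects the gate of origin.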
sequence,measurement,value
QVQLVESGVGLVQAGGSLRLSCAASGFTFQYYAMGWYRQAPGKERELVAAITRGDSTNYADSVKGRFTISRDNAKNTVYLQMNSLKPEDTAVYYCAAGSAPSYWGGWYYERDYWGQGTQVTVSS,polyreactivity (PSR sort gate),low polyreactivity
QVQLVESGGGLVQAGGSLRLSCAASGFIFEYNAMGWYRQAPGKERELVAAITSSGGSTYYADSVKGRFTISRDNAKNTVYLKMYSLKPEDTAVYYCARVRRSAYYKDYYYWGQGTQVTVSS,polyreactivity (PSR sort gate),high polyreactivity
QVQLVESGGGLVQAGGSLRISWAASGFTFYTYMGWYRQAPGKERELVAAISWSGDSTYYADSVKGRFTISRDNAKNTVYLQMNSLKPEDTAVYYCIADHGGSRYDYWGQGTQVTVSS,polyreactivity (PSR sort gate),low polyreactivity
QVQLVESGGGLVQAGGSLRLSCAASGIIFGSNVMGWYREAPGIERELVAAINYGGGSTYYADSVKGRFTISRDNAKKTVYLQMNSLKPEDTAVYYCAARGSRDYRYDYWGQGTQVTVSS,polyreactivity (PSR sort gate),low polyreactivity
QVQLVESGGGLVQAGGSLRLSCAASGSNFPYYALGWYRQAPGNERELVATITYRGGSTNYADSVKGRFTISRDNAKNTVYLQMNSLKPEDTAVYYCADYGYVLASPYPYSFVKLGYWGQGTQVTVSS,polyreactivity (PSR sort gate),low polyreactivity
QVQLVESGGGLVQAGGSLRLSCAASGRIFARNAMGWYIQAPGKEREFVAAITHSGGNTYYADSVKGRFTISRDNAKKTVYLQMNSLKPEDTAVYYCAKEYRSTKYDYWGQGTQVTVSS,polyreactivity (PSR sort gate),low polyreactivity
QVQLVESGGGLVQAGGSLRLSCAASGITFGYYAMGWYRQAPGKERELVATITDGGGTKYADSVKGRFTISRDNAKNTVYLQINSLKPEDTAVYYCAAGLRHVYATEYDYWGQGTQVTVSS,polyreactivity (PSR sort gate),low polyreactivity
QVQLVESGGGLVQAGGSLSLSCAASGRIFVRNTMGWYRQAPGKERELVATISRRGGITYYADSVKGRFTISRDNAKNTVYLQMNSLKPEDTAVYYCAAESYSFWLYDYCGQGTQVTVSS,polyreactivity (PSR sort gate),high polyreactivity
QVQLVESGGGLVQAGGSLRLSCAASGYIFDWNAMGCYRQAPGKERELVAAISSGGRTNYADSVKGRFTISRDNAKNTVYLQMNSLKPEDTAVYYCNTGPYTFDSPEYYYWGQGTQVTVSS,polyreactivity (PSR sort gate),low polyreactivity
QVQLVESGGGLVQAGGSLRLSCAASGITFVRYAMGWYRQAPGKERELVATINWSGGSTYYADSVKGRFTISRDNAKNTVYLQMNSLKPEDTAVYYCAAYYVHPVYDVGHYDYWGQGTQVTVSS,polyreactivity (PSR sort gate),low polyreactivity
QVQLVESGGGLVQAGGSLRLSCAASGFTFYGYAMGWYRQAPGKERELVAAISSSGGRTYYADSVKGRFTISRDNAKNTVYLQMNSLKPEDTAVYYCAGDYTSRDYYYWGQGTQVTVSS,polyreactivity (PSR sort gate),high polyreactivity
QVQLVESGGGLVQAGGSLRLSCAASGFTFKYYTMGWYRHAPGKETELDAVITRSGGSTYADSVKGRFTISRDNAKNTVYLQMNSLKPVDTAVYYCAKGAAGINLVRHDYWGQVTQVTVSS,polyreactivity (PSR sort gate),high polyreactivity
QVQLVESGGGLVQAGGSLRLSCAASGLIFGWYAMGWYRQAPGKERELVAGISGSGGITYYADSVKGRFTISRDNAKNTVYLQMNSLKPEDTAVYYCAARPGYVHIDFDYWGQGTQVTVSS,polyreactivity (PSR sort gate),low polyreactivity
QVQLVESGLGLVQAGGSLRLSCAASGTTLLGYAMGWYRQAPGKERELVAAITGSGGRTSYADSVKGRFTISRDNAKNTVYLQMNSLKPEDTAVYYCAAARRYHFQRFNYWGQGTQVTVSS,polyreactivity (PSR sort gate),high polyreactivity
QVQLVESGGGLVQAGGSLRLSCAASGYTFAYYVMGWYRQAPGKERELVATIRSRAGRTYYADSVKERFTISRDNAKNTVYLQMNSLKPEDTAVYYCAAGWYYTYDYWGQGTQVTVSS,polyreactivity (PSR sort gate),high polyreactivity
QVQLVESGGGLVQAGGSLRLSCAASGFIFYRYVMGWFRQAPGKERELVAAISGRGGSTYYADSVKGRFTISRDNAKNTVYLQMNSLTPEDTAVYYCNRLVYRAAGGPMDYWGQGTQVTVSS,polyreactivity (PSR sort gate),high polyreactivity
QVQLVESGGGLVQAGGSLRLSCAASGRTNRFYAMGWYRPAPGNERELVAAIRNGGRTNYADSVKGRFTIARDNAKNTVYLQMNSLKPEDTAVYSCAKQPGISYRHYDYWGQGPQVTVSS,polyreactivity (PSR sort gate),high polyreactivity
QVQLVESGGGLVQAGGSLRLSCAASGSIFGTYAMGWYRQAPGNERELVAAITGNGGRTYYADSVKGRFTISRDNAKNTVYLQMNSLKPEDTAVYYCAKATSRRGFYYWGQGTQVTVSS,polyreactivity (PSR sort gate),high polyreactivity
QVQLVESGGGLVQAGGSLRLSCAASGITFRFYAMGWYRQAPGKERELVAAISWSGGSTNYADSVKGRFTISRDNAKNTVYLQLNSLKPEDTAVYYCAADQYYYRYIRTSKYDYWGQGTQVTVSS,polyreactivity (PSR sort gate),high polyreactivity
QVQLVESGGGLVQAGGSLRLSCAASGSTFAGNAMGWYRQAPGKERELVAGITSSGARTYYADSVKGRFTISRDNAKNTVYLQMNSLKPEDTAVYYCNKYHFSPYDYWGQGTQVTVSS,polyreactivity (PSR sort gate),high polyreactivity
QVHLVESGGGLVQEGGSLRISCAASGGTFHSNDMGWYRQAPGKESELVASINWSGGSTYYSDSVKGRFTISRDNAKNTVYLQMNRLKPEDNAVYYCAARESYPGYGYDHWGQGTQVTVSS,polyreactivity (PSR sort gate),low polyreactivity
QVQLVESGGGLVQAGGSLRLSCAASGRTFPYNTMGWYRQAPGKERELVASISYRGGTYYADSVKGRFTISRDNAKNTVYLQMNSLKPEDTAVYYCNAVYYFSPSYRGYYWGQGTQVTVSS,polyreactivity (PSR sort gate),high polyreactivity
QVQLVESGGGLVQAGGSLRLSCAASGLIFRYYAMGWYRQAPGKERELVAAISSSGTRTYYADSVKGRFTISRDNAKNTVYLQMNSLKPEDTSVYYCATENQNPTGGYWGQGTQVTVSS,polyreactivity (PSR sort gate),high polyreactivity
QVQLVESGGGLVQAGGSLRLSCAASGSTFYRNAMGWYRQAPGKERELVATITFNGGSTYYADSVKGRFTISRDNAKNTVYLQMNSLKPEDTAVYYCAKSHAIYYWWDESWGQGTQVTVSS,polyreactivity (PSR sort gate),low polyreactivity
QVQLVESGGGLVQAGGSLRLSCAASGRIFSRYAMGWYRQAPGKERELVAAISWSGGSTYYADSVKGRFTISRDKAKNTVYLQMNSLKPEDTAVYYCAAKRQYTEYNYWGQGTQVTVSS,polyreactivity (PSR sort gate),high polyreactivity
QVQLVESGGGLVQAGGSLRLSCAASGLTFYYYAMGWYRQAPGKQRELVAAINSSGGITFYADSVKGRFTISRDNAKNTFYLQMNSLKPEDTAVYYCASGGRSNRYGYWGQGTQVTVSS,polyreactivity (PSR sort gate),low polyreactivity
QVQLVESGGGLVQAGGSLRLSCAAAGSIFSYYAMGWSRPEPGKEREFVATIRRSGASTYYADSVKGRFTISRDNAKNTGYLQMNSLKPEDTAVYYCNAASARRPIYEAARGSKYDYWGQRTQVTVSS,polyreactivity (PSR sort gate),low polyreactivity
QVQLVESGGGLVQAGGILRLSCAASGRTFSWNAMGWYRQAPGKERELVAAISNSGGSTYYADSVKGRFTISRDNAKNTVFLQMNSLKPEDTAVYYCAVYRYYGFSLWYDYWGQGTQVTVSS,polyreactivity (PSR sort gate),low polyreactivity
QVQLVESGGGLVQAGGSLRLSCAASGSIFQVYAMGWYRQAPGKEREFVAAISYSGGGTYYADSVKGRFTISRDNAKNTVFLQMNSLKPEDTAVYYCAADVSGWEYDFWGLGTQVTVSS,polyreactivity (PSR sort gate),low polyreactivity
QVQLVESGGGLVQAGGSLRLSCAASGFTFSGNVMGWYRQAPGKERELVAGISRSGSSTSYADSVKGRFTISRDNAKNTVYLQMNSLKPEDTAVYYCNKVKRSYYYVDTDYWGQGTQVTVSS,polyreactivity (PSR sort gate),high polyreactivity
QVQLVESGVGLVQAGGSLRLSCAASASTFYGYTMGWNRQAPGKERELVAAITSTGRTYYADSVKGRFTISRDNAKNTVYLQMNSLKPEDTAVYYCAKKSSARRYDYDYWGQGTQVTVSS,polyreactivity (PSR sort gate),high polyreactivity
QVQLVESGGGLVQAGGSLRLSCAASGSTFKSYVMGWYRQAPGKERELVAAISSGDSTYYADSVKGRFTISRDNAKNTVYLQMNSLKPEDTAVYYCAADPGYTVEPWEDDDWGQGTQVTVSS,polyreactivity (PSR sort gate),low polyreactivity
QVQLLESGGGLDQAGGTLRLSWAASGIIFSFYTMGWYRQAPGKERELVAAITWSGGSTYYADSVKGRFTISRDNAKNTVYLQMNSLKPDDTAVYYCIARNPGRKRSQGYSWGQGTQVTVSS,polyreactivity (PSR sort gate),low polyreactivity
QVQLVESGGGLVQAGGSLRISCAASGSIFRGNAMGWYRQAHGKERELVAAITRGVSTYYADSVKGRFTISRDNAKNTVYLQMNSLKPEDTAVYYCAKPYWWGYYSWGQGSQVTVSS,polyreactivity (PSR sort gate),high polyreactivity
QVQLVESGGGLVQAGGSLRLSCAASGRIFPFYAMGWNRQAPGKERELVAAITSSGGRTYYADSVKGRFTISRDNAKNTVYLQMNSLIPEDTAVYYCAADDTDYPEYDYWGQGTQVTVSS,polyreactivity (PSR sort gate),high polyreactivity
QVQLVESGGGLVQAGGSLRLSCAASGITFYGNAMGWYRQAPGKERELVAGISSGGSTSYADSVKGRFTISRDNAKNTVYLQMNSLKPEDTAVYYCAKRWYYGTRYGTSYIRDYWGQGTQVTVSS,polyreactivity (PSR sort gate),high polyreactivity
QVQLVESGGGLVQAGGSLRLSGAASGGTFSNYAMGWYRPAPGKEREVVAAIRWRGGNTYYADSVKGRFTISRDNAKNTVYLQMNSLKPEDTAVYYCAAQTHDYTRSVGTTAYDYWGQGTQVTVSS,polyreactivity (PSR sort gate),low polyreactivity
QVQLVESGGGLVQAGGSLRLSCAASGSTFIDYAMGWYRQAPGKERELVAAITWSGSSTYYADSVKGRFTISRDNAKNTVYLQMNSLKPEDTAVYYCAARYWYQSYHTYGYYSWGQGTQVTVSS,polyreactivity (PSR sort gate),low polyreactivity
QVQLVESGGGLVQAGGSLRLSCDASGLTFSFYVMGWYRQAPVKERELVAAISRSGTSTYYSDSVKGRFTISRDNAKNTVYLQMNSLKPEDTAVYYCADRGRWLYYLYELDYWGQGTQVTESS,polyreactivity (PSR sort gate),high polyreactivity
QVQLVESAGGLVQAGGSLRLSCAASGIIFEYYTRGWYRQAPGKERELVASITYDGDSTYYADSVKGRFTISRDNAKNTVYLQMNSLKPEDTAVYYCAADYYYVYSSFGHYYWGQGTQVTVSS,polyreactivity (PSR sort gate),low polyreactivity
QVQLVESGGGLVQAGGSLRLSCAASGFIFGSYAMGWYRQAPGKERELVAAITSSGITYYADSVKGRFTISRDNAKNTVYLQMNSLKPEDTAVYYCAAEGSTYQGAPGVYYWGQGTQVTVSS,polyreactivity (PSR sort gate),high polyreactivity
QVQLVESGGGLVQAGGSLRLSGAASGRIFWYNAMGWYRQAPGKEREVVAGITSGGRTNYADSVKGRFTISRDNAKNTVYLQMNSLKPEDTAVYYCAATHSLRMYYLGQGTQVTVSS,polyreactivity (PSR sort gate),low polyreactivity
QVLQQESCGLVQAGCSLRMSCAASGSISTALSMGWYRQAPGKERELVATISDGASTNYADSVKGRFTISRVNAKNTVYLQMNSLKPEDTAVYYFARYYFGNFGWGQGTQVTVSS,polyreactivity (PSR sort gate),high polyreactivity
